B1: TPR t1 (parent)
chain: GACCAAUCUGCCCUCAGAGCUCGAGAACAUCUUCGGAUGCAGAGGAGGCAGGCUUCGGUGGCGCGAUAGCGCCAACGUCCUCAACCUCCAAUGCAUCCCACCACAUGAUGAUGCCUGAAGAGCCUUGGUUUUUUG

Variants of: B1
Assay: polymerase ribozyme fitness, log enrichment relative to wild type (log ratio); higher = more active; in vitro selection for triplet polymerase activity
Method in brief: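 Each subunit of a heterodimeric triplet polymerase ribozyme was represented by a PCR-built, transcribed mutant library that underwent triplicate single-round in vitro selection with frozen incubation at −7 °C. Extended constructs were recovered by gel excision, streptavidin-bead capture and RT-PCR, and Illumina sequencing of input and output libraries kept genotypes with ≥10 input reads and ≥1 read per output. Fitness is the logarithm of genotype enrichment relative to wild-type enrichment, from inverse-variance-weighted replicate averages, with a logarithm base of 2.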

Q: With A6U G42U U87A C94A C123G as the variant, how does the “polymerase ribozyme fitness (log ratio)” value read?
A: Its value is -1.12.

Q: For A6U C34G C123U, which “polymerase ribozyme fitness (log ratio)” value is on record?
A: Its value is -5.18.

Q: Which “polymerase ribozyme fitness (log ratio)” value does the source give for U7A G60A C64U C124A U133C here?
A: Its value is -1.69.

Q: For U7A G45A C49G G71A C80U A84U C104U, which “polymerase ribozyme fitness (log ratio)” value is on record?
A: The value was -4.66.

Q: With A6U G44A C94A as the variant, how does the “polymerase ribozyme fitness (log ratio)” value read?
A: The value was -1.69.

Q: For A6U C8U C70A C101G, which “polymerase ribozyme fitness (log ratio)” value is on record?
A: Its value is -3.42.

Q: For U7A G69C C115A, which “polymerase ribozyme fitness (log ratio)” value is on record?
A: Its value is 0.0666.

Q: With U7A U38C A41C G44U as the variant, how does the “polymerase ribozyme fitness (log ratio)” value read?
A: The value was -3.32.

Q: With U7A G63U C80A as the variant, how does the “polymerase ribozyme fitness (log ratio)” value read?
A: Its value is -4.19.

Q: With U7A A16C G63A A121U as the variant, how does the “polymerase ribozyme fitness (log ratio)” value read?
A: The value was -0.146.

Q: For A6U G48C U54A C89A C97U, which “polymerase ribozyme fitness (log ratio)” value is on record?
A: Its value is -3.1.

Q: Which “polymerase ribozyme fitness (log ratio)” value does the source give for A6U G69U G113A here?
A: The value was -0.642.

Q: With U7A C62G G117U as the variant, how does the “polymerase ribozyme fitness (log ratio)” value read?
A: The value was -5.82.

Q: Which “polymerase ribozyme fitness (log ratio)” value does the source give for U7A A29G G63U C98U here?
A: Its value is -3.67.

Q: With A6U G48U C64U U81G as the variant, how does the “polymerase ribozyme fitness (log ratio)” value read?
A: The value was -4.27.

Q: Which “polymerase ribozyme fitness (log ratio)” value does the source give for U7A A29G A83C here?
A: The value was -0.648.

Q: Which “polymerase ribozyme fitness (log ratio)” value does the source give for U7A C88G here?
A: Its value is -0.397.

Q: Which “polymerase ribozyme fitness (log ratio)” value does the source give for U7C A18C here?
A: Its value is -1.7.

Q: Which “polymerase ribozyme fitness (log ratio)” value does the source give for A6U G57C G69A A90G here?
A: Its value is -2.65.

Q: For A6U U78C, which “polymerase ribozyme fitness (log ratio)” value is on record?
A: The value was 0.144.

Q: For U7A C70A G71A, which “polymerase ribozyme fitness (log ratio)” value is on record?
A: The value was -2.52.

Q: For A6U C12U C76A C115U, which “polymerase ribozyme fitness (log ratio)” value is on record?
A: Its value is -2.81.

Q: For A6U U54G C70A, which “polymerase ribozyme fitness (log ratio)” value is on record?
A: The value was -3.12.

Q: With A6U G48U C89A A105U as the variant, how does the “polymerase ribozyme fitness (log ratio)” value read?
A: The value was -6.02.

Q: Which “polymerase ribozyme fitness (log ratio)” value does the source give for U7C A16G C20U G120U here?
A: Its value is -2.78.

Q: With U7A C79G as the variant, how does the “polymerase ribozyme fitness (log ratio)” value read?
A: Its value is -1.03.

Q: With A6U C72G U78G U130C as the variant, how does the “polymerase ribozyme fitness (log ratio)” value read?
A: Its value is -0.0449.

Q: With A6U C56A A105G as the variant, how does the “polymerase ribozyme fitness (log ratio)” value read?
A: The value was -2.46.

Q: Which “polymerase ribozyme fitness (log ratio)” value does the source give for U7C A46G A108G C123A here?
A: Its value is -1.51.

Q: Which “polymerase ribozyme fitness (log ratio)” value does the source give for A6U G48U C53A here?
A: Its value is -0.649.

Q: Which “polymerase ribozyme fitness (log ratio)” value does the source give for A6U C8G G60A C72A U130C here?
A: Its value is -0.0324.

Q: Which “polymerase ribozyme fitness (log ratio)” value does the source give for A6U G48U A105U here?
A: The value was -2.38.

Q: With A6U C53A C62A C97U G113A as the variant, how does the “polymerase ribozyme fitness (log ratio)” value read?
A: The value was -3.13.

Q: For U7A C94U A95U C123U G127U, which “polymerase ribozyme fitness (log ratio)” value is on record?
A: The value was -1.38.

Q: Which “polymerase ribozyme fitness (log ratio)” value does the source give for A6U G48A C123A here?
A: Its value is 0.913.

Q: Which “polymerase ribozyme fitness (log ratio)” value does the source give for A6U C56A here?
A: Its value is -0.282.

Q: Which “polymerase ribozyme fitness (log ratio)” value does the source give for U7C C12G G44A U92A C102A C123U here?
A: Its value is -7.32.

Q: For U7A A27U G61C G117U, which “polymerase ribozyme fitness (log ratio)” value is on record?
A: Its value is -5.69.

Q: With A6U C53U C88U as the variant, how does the “polymerase ribozyme fitness (log ratio)” value read?
A: Its value is -0.366.

Q: With A6U G36A G71U as the variant, how does the “polymerase ribozyme fitness (log ratio)” value read?
A: Its value is -0.709.

Q: With A6U G45U C49U C76G as the variant, how does the “polymerase ribozyme fitness (log ratio)” value read?
A: The value was -0.941.

Q: For U7A C12A G35A C53U, which “polymerase ribozyme fitness (log ratio)” value is on record?
A: The value was -5.51.

Q: Which “polymerase ribozyme fitness (log ratio)” value does the source give for U7A G39C A74G G107U G120U U130C here?
A: Its value is -4.02.

Q: Which “polymerase ribozyme fitness (log ratio)” value does the source give for U7A C49U here?
A: The value was 0.388.

Q: With U7C A46U C76G as the variant, how does the “polymerase ribozyme fitness (log ratio)” value read?
A: The value was -0.0822.

Q: With U7A G48C as the variant, how does the “polymerase ribozyme fitness (log ratio)” value read?
A: Its value is -0.566.

Q: For U7A G10C C72U, which “polymerase ribozyme fitness (log ratio)” value is on record?
A: The value was -0.8.

Q: For U7A U14A A37G G69A, which “polymerase ribozyme fitness (log ratio)” value is on record?
A: The value was -3.91.

Q: Which “polymerase ribozyme fitness (log ratio)” value does the source give for A6U G61U G117A here?
A: Its value is -0.538.

Q: With U7A C97A C101U U112C as the variant, how does the “polymerase ribozyme fitness (log ratio)” value read?
A: The value was -2.6.

Q: Which “polymerase ribozyme fitness (log ratio)” value does the source give for U7A G10U G93A here?
A: Its value is -0.792.

Q: Which “polymerase ribozyme fitness (log ratio)” value does the source give for U7A G110C here?
A: Its value is -3.41.

Q: For U7A C34A C53A, which “polymerase ribozyme fitness (log ratio)” value is on record?
A: Its value is -2.31.

Q: Which “polymerase ribozyme fitness (log ratio)” value does the source give for U7C A91G C123U U126A here?
A: Its value is 0.505.

Q: Which “polymerase ribozyme fitness (log ratio)” value does the source give for A6U C11U C22U A41C here?
A: The value was -5.83.

Q: Which “polymerase ribozyme fitness (log ratio)” value does the source give for U7C C8G U21C C62G U78A here?
A: The value was -1.85.

Q: For U7A C86G A90C, which “polymerase ribozyme fitness (log ratio)” value is on record?
A: The value was -1.43.

Q: With A6U U92A as the variant, how does the “polymerase ribozyme fitness (log ratio)” value read?
A: Its value is -2.82.

Q: For A6U C12G G45C, which “polymerase ribozyme fitness (log ratio)” value is on record?
A: The value was -1.57.

Q: With U7A C11G G44U A50G C94U U96A G117A as the variant, how does the “polymerase ribozyme fitness (log ratio)” value read?
A: Its value is -1.92.

Q: With U7A G71A as the variant, how does the “polymerase ribozyme fitness (log ratio)” value read?
A: Its value is -0.425.

Q: Which “polymerase ribozyme fitness (log ratio)” value does the source give for A6U G48U U81C A121G here?
A: The value was 0.747.

Q: For A6U C12U C56U A95G, which “polymerase ribozyme fitness (log ratio)” value is on record?
A: The value was -0.128.

Q: For A6U G10C, which “polymerase ribozyme fitness (log ratio)” value is on record?
A: The value was -0.4.

Q: Which “polymerase ribozyme fitness (log ratio)” value does the source give for A6U G10A here?
A: Its value is 0.406.

Q: With A6U C11U G47C C85U C114A as the variant, how does the “polymerase ribozyme fitness (log ratio)” value read?
A: Its value is -4.43.

Q: Which “polymerase ribozyme fitness (log ratio)” value does the source give for A6U C13G G69U C88U C97U G117C C124G U132A here?
A: The value was -1.66.

Q: Which “polymerase ribozyme fitness (log ratio)” value does the source give for U7A G10A G52U C62G here?
A: Its value is -2.23.

Q: For U7A C12G A18G G44A G52U, which “polymerase ribozyme fitness (log ratio)” value is on record?
A: The value was -5.51.

Q: Which “polymerase ribozyme fitness (log ratio)” value does the source give for U7A C8U G60C here?
A: The value was -0.91.

Q: With U7A U9C U78A G110U as the variant, how does the “polymerase ribozyme fitness (log ratio)” value read?
A: The value was -1.82.

Q: For U7C C8G G45A C53U G63A U87A, which “polymerase ribozyme fitness (log ratio)” value is on record?
A: Its value is -1.06.

Q: For A6U C53U C73U, which “polymerase ribozyme fitness (log ratio)” value is on record?
A: The value was 0.296.

Q: For U7A A37U C70G U78A, which “polymerase ribozyme fitness (log ratio)” value is on record?
A: Its value is -3.04.

Q: With U7A C11G C12U A18C A29G G47U G60C as the variant, how does the “polymerase ribozyme fitness (log ratio)” value read?
A: Its value is -5.79.

Q: With A6U C13A U21C G69A C82A as the variant, how does the “polymerase ribozyme fitness (log ratio)” value read?
A: The value was -2.61.

Q: Which “polymerase ribozyme fitness (log ratio)” value does the source give for A6U G10C C34A U81A U112C G120C here?
A: Its value is -3.64.

Q: For U7A A26U C49U C94G C123G, which “polymerase ribozyme fitness (log ratio)” value is on record?
A: The value was -4.09.

Q: For A6U U38G C73U U125A, which “polymerase ribozyme fitness (log ratio)” value is on record?
A: Its value is -1.49.

Q: Which “polymerase ribozyme fitness (log ratio)” value does the source give for U7A U112A here?
A: The value was 1.69.

Q: With U7A A84C U116C as the variant, how does the “polymerase ribozyme fitness (log ratio)” value read?
A: The value was -0.218.

Q: For A6U G48U C72A, which “polymerase ribozyme fitness (log ratio)” value is on record?
A: The value was 0.271.

Q: Which “polymerase ribozyme fitness (log ratio)” value does the source give for A6U C86U here?
A: The value was -0.389.

From the RNAGym collection of RNA variant scans (doi:10.1073/pnas.2313332121)
